Test: soluble on expression in E. coli; label from the status in PepcDB or PDB records

Row | Sequence | soluble on expression in E. coli
1 | MGHHHHHHSHRRERACPERALDLENIMRKFSGSCRCCAKQIKFYRMRHHYKSCKKYQDEYGVSSIIPNFQISQDSVGNSNRSETSTSDNTETYQENTSSSGHPTFKCPLCQESNFTRQRLLDHCNSNHLFQIVPVTCPICVSLPWGDPSQITRNFVSHLNQRHQFDYGEFVNLQLDEETQYQTAVEESFQVNI | not soluble
2 | MDEQEIQRLVEEVSLQYFGMPFLHKAMFNSRLRTTGGRYLLNTHNIELNYRYYEMYGKEELVGIVKHELCHYHLHITGRGYKHRDKDFRELLKAVDAPRFCKRMINEEKGKKVYMYECMECSLQYVRRRQINTKRYVCGKCKGKLILIKKTSLEHHHHHH | not soluble
3 | MKVIETNFTDAKLLEPRLFGDDRGFFTESYNKKVLETLGVTHSFVQDNVSYSAEAGTIRGLHFQKNPKAQTKLIQVMQGAIYDVIVDLRKDSPTFKQWRGYILSADNHRQLLVPKGFAHGFCTLVPHTIVMYKVDEYYSADHDSGVLWNDKELAIPWPVTSPILSDKDRILPLLQECEDSF | not soluble
4 | SEAIQTLLDRKLPDEELEQINQACLSVKGVLGVHQLRTRMSGPTRFIQLHLELDDNLRLIEAHYIADKVEDNLLALFPEADVLIHQDPLSVVFGPEKEQKAQDW | not soluble
5 | MGSDKIHHHHHHLGFILDKSGLIPPSIDFPELIKAGREQLHRETDYEQEARHLDMFFKLMAGDKCFEVPRINQEFTTDKTLAMEFKEGVTIDQIVSANYNVKNKAVLNLIDLFFRELFEFNLIQSDPNYANFLFDEKNGKIILLDFGATIPVSSDTLAKFKALFNETLGQNKKSVENAMYQLGILDKGLPSHILNELTDIYWDSTEPIRKNKMFDFGNSNILERMQELSSEIIVHRKKIKIPPFDILSIQRKIGGIFLLARRFEAKINLNKIFEK | not soluble
6 | KNFPVLHLHREDFHDIRGTISLHLKTGFPMGFQMSVMCIGQLSMQTVVNSLGTAAVAGYTAASKADQLSVLVNNAMMTAISNYVAQNFGAGKRERIRQGVR | not soluble
7 | MVDIVKRRDWEKKEKKKIAIERIDTLFTLAERVARYSPDLAKRYVELALEIQKKAKVKIPRKWKRRYCKRCHTFLIPGVNARVRLRTKRMPHVVITCLECGYIMRYPYLREVKQKRKKAT | soluble
8 | MDKGLSRLVELLNARGASMEEMVRLLEEERASIVALQAERLQAAVEQKVQVAARMEALDGDCRRVIADEARVRGLGEATLSPLLAGNPSPEKTELAGLQTKLSTLAQEIKGMIADNRRLLETSMVTVGRSLAFFQSRLTVAETYGNSGSMVERSSGGILRKEI | not soluble
9 | MSKSTRSRRKKKSKGGDRSERKTNKSERKKKGAKSDIGKKKKKNETVSKDQTNTGVSTGAEGVEKKEKEQWSGDETAKKLVASGAFNTSTITSGFKELSNPKPSADMCSIFKNNPKKSRAPDWPIADNKLIKLSHAPGNFICAAKVDVPEFNRTMIVTQIPDVTVSANIEDFWRMIFQEEIVSIVIAVMPLECSVTLQQLFPLLSGTFSNHGKMFLNNKKVDSAVAMTAYTLEVLPDGCSNSLLSTVYHLHNWKQKQGLENVGELVTTVEKVLKTNENTVLMSMNGIGRAGTMLTLFTSMLSVQKSKEVNPKEILIKLRGERSGLVENADQFNTVHRAMALWFKNKCSDEEVQKKVVEFAPNLTTEAVERSSYEYLNSQHFLYPILLESMLHQHQMKQVLLKKVERSMERSKL | not soluble
10 | AIETETLVVGAGPGGYVAAIRAAQLGQKVTIVEKGNLGGVCLNVGCIPSKALISASHRYEQAKHSEEMGIKAENVTIDFAKVQEWKASVVKKLTGGVEGLLKGNKVEIVKGEAYFVDANTVRVVNGDSAQTYTFKNAIIATGSRPIELPNFKFSNRILDSTGALNLGEVPKSLVVIGGGYIGIELGTAYANFGTKVTILEGAGEILSGFEKQMAAIIKKRLKKKGVEVVTNALAKGAEEREDGVTVTYEANGETKTIDADYVLVTVGRRPNTDELGLEQIGIKMTNRGLIEVDQQCRTSVPNIFAIGDIVPGPALAHKASYEGKVAAEAIAGHPSAVDYVAIPAVVFSDPECASVGYFEQQAKDEGIDVIAAKFPFAANGRALALNDTDGFLKLVVRKEDGVIIGAQIIGPNASDMIAELGLAIEAGMTAEDIALTIHAHPTLGEIAMEAAEVAL | soluble
11 | ADKKLVVATDTAFVPFEFKQGDLYVGFDVDLWAAIAKELKLDYELKPMDFSGIIPALQTKNVDLALAGITITDERKKAIDFSDGYYKSGLLVMVKANNNDVKSVKDLDGKVVAVKSGTGSVDYAKANIKTKDLRQFPNIDNAYMELGTNRADAVLHDTPNILYFIKTAGNGQFKAVGDSLEAQQYGIAFPKGSDELRDKVNGALKTLRENGTYNEIYKKWFGTEPK | soluble
12 | MTIGIDKINFYVPKYYVDMAKLAEARQVDPNKFLIGIGQTEMAVSPVNQDIVSMGANAAKDIITDEDKKKIGMVIVATESAVDAAKAAAVQIHNLLGIQPFARCFEMKEACYAATPAIQLAKDYLATRPNEKVLVIATDTARYGLNSGGEPTQGAGAVAMVIAHNPSILALNEDAVAYTEDVYDFWRPTGHKYPLVDGALSKDAYIRSFQQSWNEYAKRQGKSLADFASLCFHVPFTKMGKKALESIIDNADETTQERLRSGYEDAVDYNRYVGNIYTGSLYLSLISLLENRDLQAGETIGLFSYGSGSVVEFYSATLVEGYKDHLDQAAHKALLNNRTEVSVDAYETFFKRFDDVEFDEEQDAVHEDRHIFYLSNIENNVREYHRPE | soluble
13 | DVQLQESGGGLVQAGGSLRLSCAASGATGSTYDMGWFRQAPGKERESVAAINWGSAGTYYASSVRGRFTISRDNAKKTVYLQMNSLKPEDTAVYTCGAGRIGRSVFNLRRESWVTWWGQGTQVTVSS | soluble
14 | MISQVRIMDVIKPLGSFIQQDGMPVFGHLSAIPRSLDLESFQYLNEMDNPVSKWRKHFDYKQFQFVSLVTPDYVVGIAIADIRYLASGFCYLFDIKRNALTEQQWLKPCQLGYQTQPSSWLSKAHLANNTIQFSIEEGQWHVQFVTPSVNANITLHPQPQSLPLMLSTPTGYSGWTYTQKHNAMTVTGNLFILGEEQDLSQVAAGYDFSAGYMRRETSWRWASINHKDGDKSLGLNLAAGVNETGFCENVLWVDGERHLLNPVQFQFSRQNPRTDWRITSEDGCVDLVFEPINQRSEKKNFWFLKSNFRQYIGHFSGFVVDGNGSKHELDGVVGLTEDHYAKW | not soluble
15 | MSTGITYDEDRKTQLIAQYESVREVVNAEAKNVHVNENASKILLLVVSKLKPASDIQILYDHGVREFGENYVQELIEKAKLLPDDIKWHFIGGLQTNKCKDLAKVPNLYSVETIDSLKKAKKLNESRAKFQPDCNPILCNVQINTSHEDQKSGLNNEAEIFEVIDFFLSEECKYIKLNGLMTIGSWNVSHEDSKENRDFATLVEWKKKIDAKFGTSLKLSMGMSADFREAIRQGTAEVRIGTDIFGARPPKNEARII | soluble
16 | MGSDKIHHHHHHMNSPADYDPKPRRASVAVDVGGVIVGGGAPVVVQSMTNTDTADIDATVRQVAALFQAGSEMVRITVDRDESAAAVPKIRERLLRLGMDVPLIGDFHYIGHKLLADHPACAEALAKYRINPGNVGFKDKKDKQFGEIVEMAIRYDKPVRIGVNWGSLDQELLTTLMDRNKEQGFPLSARQVTREAIVQSALISAELAEEIGLPRNRIILSAKVSQVQDLIAVYSMLSERSNHALHLGLTEAGMGSKGIVASSAAMGYVLQHGIGDTIRVSLTPEPNGDRTREVQVAQELLQVMGFRQFIPVVAACPGCGRTTSTVFQELAQNIQNDIRKNMPIWREKYPGVEALNVAVMGCIVNGPGESKHADIGISLPGTGESPAAPVFIDGEKALTLRGPNIAADFEALVIDYIEKRFGQKDAAE | not soluble
17 | MSLADERDQLKSIQADIAAKERAVRQKQQQRASLLAQLKKQEEAISEATRKLRETQNTLNQLNKQIDEMNASIAKLEQQKAAQERSLAAQLDAAFRQGEHTGIQLILSGEESQRGQRLQAYFGYLNQARQETIAQLKQTREEVAMQRAELEEKQSEQQTLLYEQRAQQAKLTQALSERKKTLAGLESSIQQGQQQLSELRANESRLRNSIARAEAAAKARAEREAREAQAVRDRQKEATRKGTTYKPTESEKSLMSRTGGLGAPRGQAFWPVRGPTLHRYGEQLQGELRWKGMVIGASEGTEVKAIADGRVILADWLQGYGLVVVVEHGKGDMSLYGYNQSALVSVGSQVRAGQPIALVGSSGGQGRPSLYFEIRRQGQAVNPQPWLGREGHHHHHH | soluble
18 | SNAMTHIQLDFSKTLEFFGEHELKQQQEIVKSIHKTIHEGTGAGSDFLGWVDLPVDYDKEEFSRIVEASKRIKENSDVLVVIGIGGSYLGARAAIEMLTSSFRNSNEYPEIVFVGNHLSSTYTKELVDYLADKDFSVNVISKSGTTTEPAVAFRLFKQLVEERYGKEEAQKRIFATTDKEKGALKQLATNEGYETFIVPDDVGGRYSVLTAVGLLPIATAGINIEAMMIGAAKAREELSSDKLEENIAYQYATIRNILYAKGYTTEMLINYEPSMQYFNEWWKQLFGESEGKDFKGIYPSSANYTTDLHSLGQYVQEGRRFLFETVVKVNHPKYDITIEKDSDDLDGLNYLAGKTIDEVNTKAFEGTLLAHTDGGVPNMVVNIPQLDEETFGYVVYFFELACAMSGYQLGVNPFNQPGVEAYKQNMFALLGKPGFEDLKKELEERL | soluble
19 | MEIIYPPLVEEGLKYYLETTQQSLDKSTFYRSMVERGIITETGLPTQQAIENGLVKDYYEDQGLSFDDFLRIYPIFEEYDEELFQCIDGYWEIPVDMKENLASQLESGELTFEDAQQIQAYLEDR | not soluble
